According to patent CN109929036A (TAIZHOU MAIBO TAIKE PHARMACEUTICAL CO LTD, dated 2019):

Key:
[1] = biological target: T1, 表面表达人PD-1的基因重组293T细胞上的人PD-1 (human, UniProt Q15116 25-288); experiment: flow cytometry competition; displacement of FITC-PD-L1 from PD-1-expressing 293T cells
T1 construct: whole, on cells; also called 2H-3细胞表面PD-1; 表面表达PD-1的293T细胞

[2] = biological target: T2, 化学合成的人PD-1第75-82位氨基酸(序列QTDKLAAF) (human); experiment: SPR, BIACORE3000, 5L12 coupled to the chip
T2 peptide: QTDKLAAF

[3] = biological target: CHO细胞重组表达的人PD-1胞外段全长蛋白(第20-170位氨基酸) (human) (UniProt Q15116); experiment: SPR, BIACORE3000, 5L12 coupled to the chip

T1 sequence (Q15116 25-288): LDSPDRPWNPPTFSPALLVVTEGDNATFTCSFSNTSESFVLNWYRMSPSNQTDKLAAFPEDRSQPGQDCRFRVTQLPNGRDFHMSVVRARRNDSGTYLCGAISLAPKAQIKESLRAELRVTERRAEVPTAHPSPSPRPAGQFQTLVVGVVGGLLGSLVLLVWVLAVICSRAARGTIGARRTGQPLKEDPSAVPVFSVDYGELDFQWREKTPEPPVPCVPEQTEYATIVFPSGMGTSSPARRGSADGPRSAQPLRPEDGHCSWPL

B1: 全人源抗PD-1单克隆抗体5L12 (antibody, human IgG4 S228P, kappa, V domains shown)
VH: EVQLVESGGGLVQPGGSLRLSCAASGYTFTSYWMLWVRQAPGKGLEWVSYIYPSTGYTEYSENFKDRFTISRDNSKNTLYLQMNSLRAEDTAVYYCARGVRYYFDYWGQGTLVTVSS
VL: DIQMTQSPSSLSASVGDRVTITCKSSQSLLDSSTRKNYLAWYQQKPGKAPKLLIYWASTRESGVPSRFSGSGSGTDFTLTISSLQPEDFATYYCKQSYNLWTFGQGTKVEIKR
notes: also called FITC-5L12
[1]
  IC50: ~0.03 µg/mL
  IC50 ratio against Nivolumab: 0.05 fold of the IC50 of Nivolumab
  IC50 ratio against Pembrolizumab: 0.5 fold of the IC50 of Pembrolizumab
[2]
  Kd: ~0.01 nM
[3]
  Kd: 0.01 nM
